Experimental data: patent US20210206804A1

Key:
[1] = biological target: αvβ6 integrin on DX3puroβ6 cells (human) (UniProt P06756); assay: internalization of the radiotracer, DX3puroβ6 cells (FIG. 27)
[2] = biological target: αvβ6 integrin (purified, captured on the ELISA plate) (UniProt P06756); assay: ELISA (format not detailed at this place); not bearing K(IPA)E
[3] = biological target: αvβ6 integrin on DX3puroβ6 cells (human) (UniProt P06756); assay: cell binding of the radiotracer, DX3puroβ6 cells (FIG. 27)

Chain of αvβ6 integrin on DX3puroβ6 cells (human) (P06756 31-1048 limits assumed, chain 1 of 2): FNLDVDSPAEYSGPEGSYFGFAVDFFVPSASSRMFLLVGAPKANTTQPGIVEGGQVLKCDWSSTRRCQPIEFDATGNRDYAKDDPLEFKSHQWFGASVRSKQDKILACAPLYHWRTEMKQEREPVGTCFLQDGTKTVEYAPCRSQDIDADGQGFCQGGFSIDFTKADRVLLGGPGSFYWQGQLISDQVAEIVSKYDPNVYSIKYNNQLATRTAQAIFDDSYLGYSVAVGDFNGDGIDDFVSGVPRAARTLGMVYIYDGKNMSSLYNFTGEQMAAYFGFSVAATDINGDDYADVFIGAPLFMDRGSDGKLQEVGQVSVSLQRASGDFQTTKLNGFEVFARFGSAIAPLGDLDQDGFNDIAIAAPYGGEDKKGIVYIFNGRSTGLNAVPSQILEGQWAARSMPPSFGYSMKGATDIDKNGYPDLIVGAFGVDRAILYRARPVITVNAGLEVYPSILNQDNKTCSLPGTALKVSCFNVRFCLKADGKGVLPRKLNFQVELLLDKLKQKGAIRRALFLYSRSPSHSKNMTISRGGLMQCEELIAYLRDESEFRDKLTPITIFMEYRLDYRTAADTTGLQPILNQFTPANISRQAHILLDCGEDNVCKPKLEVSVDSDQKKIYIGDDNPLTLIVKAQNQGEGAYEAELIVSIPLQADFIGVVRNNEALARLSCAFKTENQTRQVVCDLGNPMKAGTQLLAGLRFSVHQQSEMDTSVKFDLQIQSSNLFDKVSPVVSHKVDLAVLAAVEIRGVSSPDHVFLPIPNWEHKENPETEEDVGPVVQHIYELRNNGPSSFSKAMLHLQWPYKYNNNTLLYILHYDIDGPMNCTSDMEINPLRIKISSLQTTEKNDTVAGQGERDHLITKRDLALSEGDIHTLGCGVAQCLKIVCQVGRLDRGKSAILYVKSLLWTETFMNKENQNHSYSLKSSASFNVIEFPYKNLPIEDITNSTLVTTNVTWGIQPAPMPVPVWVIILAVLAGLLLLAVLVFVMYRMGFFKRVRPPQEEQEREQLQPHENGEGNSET
Chain of αvβ6 integrin on DX3puroβ6 cells (human) (P18564 22-788 limits assumed, chain 2 of 2, further chain): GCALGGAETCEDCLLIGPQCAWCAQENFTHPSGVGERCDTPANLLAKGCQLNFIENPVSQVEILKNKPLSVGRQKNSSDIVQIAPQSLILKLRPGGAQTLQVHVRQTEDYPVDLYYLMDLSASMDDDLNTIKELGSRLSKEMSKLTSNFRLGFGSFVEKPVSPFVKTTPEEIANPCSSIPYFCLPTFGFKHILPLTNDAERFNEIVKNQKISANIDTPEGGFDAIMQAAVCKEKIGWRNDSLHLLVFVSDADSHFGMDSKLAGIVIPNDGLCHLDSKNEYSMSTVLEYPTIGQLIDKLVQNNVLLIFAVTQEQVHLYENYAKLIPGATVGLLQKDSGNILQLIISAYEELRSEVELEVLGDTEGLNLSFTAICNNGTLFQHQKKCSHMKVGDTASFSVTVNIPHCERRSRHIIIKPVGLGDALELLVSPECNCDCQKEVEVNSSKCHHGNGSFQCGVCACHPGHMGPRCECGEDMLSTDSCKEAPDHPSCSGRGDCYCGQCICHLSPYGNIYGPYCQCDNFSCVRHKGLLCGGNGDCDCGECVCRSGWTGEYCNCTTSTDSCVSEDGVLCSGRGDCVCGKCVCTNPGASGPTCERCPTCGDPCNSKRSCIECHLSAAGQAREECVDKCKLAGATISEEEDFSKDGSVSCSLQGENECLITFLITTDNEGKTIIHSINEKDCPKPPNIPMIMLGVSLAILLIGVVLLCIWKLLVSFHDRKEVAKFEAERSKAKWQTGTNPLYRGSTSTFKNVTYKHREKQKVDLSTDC
Chain of αvβ6 integrin (purified, captured on the ELISA plate) (P06756 31-992, chain 1 of 2): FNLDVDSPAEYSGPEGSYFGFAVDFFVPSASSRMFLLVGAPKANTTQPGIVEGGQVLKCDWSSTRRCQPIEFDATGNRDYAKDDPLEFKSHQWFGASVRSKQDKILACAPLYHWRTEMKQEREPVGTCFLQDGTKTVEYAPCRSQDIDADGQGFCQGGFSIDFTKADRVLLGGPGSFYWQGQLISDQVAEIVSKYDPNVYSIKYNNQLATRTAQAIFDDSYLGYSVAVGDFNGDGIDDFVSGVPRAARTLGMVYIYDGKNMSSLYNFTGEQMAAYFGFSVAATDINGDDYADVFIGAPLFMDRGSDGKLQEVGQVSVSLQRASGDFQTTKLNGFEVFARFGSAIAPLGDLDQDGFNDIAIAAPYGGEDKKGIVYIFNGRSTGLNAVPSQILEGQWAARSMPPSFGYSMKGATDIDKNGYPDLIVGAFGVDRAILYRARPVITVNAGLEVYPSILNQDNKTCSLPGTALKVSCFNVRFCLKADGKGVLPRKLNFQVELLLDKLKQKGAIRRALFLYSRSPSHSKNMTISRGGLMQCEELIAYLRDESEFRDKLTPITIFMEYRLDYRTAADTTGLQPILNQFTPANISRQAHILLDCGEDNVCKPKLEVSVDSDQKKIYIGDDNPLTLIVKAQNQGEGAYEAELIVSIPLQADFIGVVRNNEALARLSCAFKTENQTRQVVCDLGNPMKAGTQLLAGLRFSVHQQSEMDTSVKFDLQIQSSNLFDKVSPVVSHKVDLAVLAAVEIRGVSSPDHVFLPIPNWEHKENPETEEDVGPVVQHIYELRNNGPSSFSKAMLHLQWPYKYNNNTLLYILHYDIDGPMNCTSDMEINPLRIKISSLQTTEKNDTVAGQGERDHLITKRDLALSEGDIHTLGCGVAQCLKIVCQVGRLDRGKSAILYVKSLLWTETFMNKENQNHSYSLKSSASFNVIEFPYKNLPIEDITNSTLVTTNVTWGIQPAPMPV
Chain of αvβ6 integrin (purified, captured on the ELISA plate) (P18564 22-707, chain 2 of 2, further chain): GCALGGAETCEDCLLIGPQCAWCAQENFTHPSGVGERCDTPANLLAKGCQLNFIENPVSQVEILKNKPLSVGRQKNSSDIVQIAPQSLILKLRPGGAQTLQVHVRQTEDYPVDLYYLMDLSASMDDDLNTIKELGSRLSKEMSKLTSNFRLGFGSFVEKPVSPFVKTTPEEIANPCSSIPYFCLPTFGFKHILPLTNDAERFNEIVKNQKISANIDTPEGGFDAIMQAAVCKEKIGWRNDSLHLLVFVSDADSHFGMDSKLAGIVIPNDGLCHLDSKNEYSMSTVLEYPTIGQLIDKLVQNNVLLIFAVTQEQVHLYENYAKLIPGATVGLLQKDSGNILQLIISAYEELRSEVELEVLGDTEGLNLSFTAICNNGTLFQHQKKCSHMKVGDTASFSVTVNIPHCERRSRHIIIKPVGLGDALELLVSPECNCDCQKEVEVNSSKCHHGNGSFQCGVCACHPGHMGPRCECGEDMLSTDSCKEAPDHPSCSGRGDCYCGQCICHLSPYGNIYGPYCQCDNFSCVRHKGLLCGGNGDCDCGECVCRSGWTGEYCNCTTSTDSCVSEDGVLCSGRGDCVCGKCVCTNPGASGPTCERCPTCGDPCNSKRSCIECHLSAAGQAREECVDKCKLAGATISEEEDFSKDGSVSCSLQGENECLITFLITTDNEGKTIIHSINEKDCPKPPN

PEGylated A20FMDV2 not bearing K(IPA)E (peptide)
internalized (% of bound radioactivity) [1]: 44% | IC50 [2]: 2 nM | bound (%) [3]: 52%
